Experiment [1] has as its target HLMWb5 A59V mutant (human) (UniProt P00167).
Experiment [2] concerns the target heme-binding soluble domain of human liver microsomal cytochrome b5 with an NH2-terminal 6xHis-tag extension (HLMWb5) (human) (UniProt P00167).
The target in experiment [3] is full-length form of human cytochrome b5 (human) (UniProt P00167).
In experiment [4] the target is HLMWb5 A59S mutant (human) (UniProt P00167).
Experiment [5] deals with HLMWb5 G67S mutant (human) (UniProt P00167).
For experiment [6], the target named is HLMWb5 L51I mutant (human) (UniProt P00167).
Experiment [7] deals with HLMWb5 G67A mutant (human) (UniProt P00167).
Experiment [8] addresses HLMWb5 A59V mutant (human) (UniProt P00167). The source holds these as a separate data set.
Experiment [9] concerns the target full-length form of human cytochrome b5 (human) (UniProt P00167). This is another data set of the same source.
The target in experiment [10] is HLMWb5 A59S mutant (human) (UniProt P00167). The source holds these as a separate data set.
The target of experiment [11] is HLMWb5 G67S mutant (human) (UniProt P00167). The source holds these as a separate data set.
In experiment [12] the target is HLMWb5 L51I mutant (human) (UniProt P00167). This is another data set of the same source.
The target in experiment [13] is HLMWb5 G67A mutant (human) (UniProt P00167). The source holds these as a separate data set.

poly-L-lysine (peptide) returned a midpoint potential (vs. SHE) by spectroscopic redox titration with 200 μM poly-L-lysine (-7.7 mV without poly-L-lysine) in [1] of 11.7 mV. This substance came in with a midpoint potential (vs. SHE) by spectroscopic redox titration, 15 μM protein with 200 μM poly-L-lysine, pH 7.0, 25°C (-3.2 mV without poly-L-lysine) in experiment [2] of 16.5 mV. Besides, in experiment [3], the midpoint potential (vs. SHE) by spectroscopic redox titration with 200 μM poly-L-lysine, 0.5% Triton X-100 (-2.6 mV without poly-L-lysine) was 8.7 mV. The midpoint potential (vs. SHE) by spectroscopic redox titration with 200 μM poly-L-lysine (-4.9 mV without poly-L-lysine) in [4] is 9.6 mV. This substance also showed a midpoint potential (vs. SHE) by spectroscopic redox titration with 200 μM poly-L-lysine (-7.3 mV without poly-L-lysine) in [5] of 14.2 mV. The midpoint potential (vs. SHE) by spectroscopic redox titration with 200 μM poly-L-lysine (-9.5 mV without poly-L-lysine) in experiment [6] was determined as 10.5 mV. Moreover, the midpoint potential (vs. SHE) by spectroscopic redox titration with 200 μM poly-L-lysine (-8.4 mV without poly-L-lysine) in experiment [7] is -2.7 mV. Further, the half-wave potential E1/2 (vs. SHE) by cyclic voltammetry, poly-L-lysine 50~300 μM; no dependency on the poly-L-lysine concentration observed (value at 200 μM) is -29 mV in [8] and -30.5 mV in experiment [12]. The substance further displayed a half-wave potential E1/2 (vs. SHE) by cyclic voltammetry, Au electrode with β-mercaptopropionic acid, 200 μM poly-L-lysine, with Triton X-100 in [9] of -20.5 mV. Besides, in [10], the half-wave potential E1/2 (vs. SHE) by cyclic voltammetry, poly-L-lysine 50~300 μM; shifts positively and reaches a plateau at 200 μM (value at 200 μM) is -31.5 mV. The same substance registered a half-wave potential E1/2 (vs. SHE) by cyclic voltammetry, poly-L-lysine 50~300 μM; similar concentration dependency as the wild type (value at 200 μM) in [11] of -32 mV. In [13], the half-wave potential E1/2 (vs. SHE) by cyclic voltammetry, poly-L-lysine 50~300 μM; similar concentration dependency as the wild type, with a significant negative shift (value at 200 μM) was -40.5 mV.

The values are drawn from article PMC3014896.
